The source of these data is patent US20190169256A1.

Common to all, as to assay: cell-based or functional assay
For test [1], the target named is Salmon tac3 receptor (salmon).
The target of test [2] is Tilapia tac3 receptor (tilapia).
The target of test [3] is Zebrafish tac3 receptor (zebrafish).

In the case of Salmon NKB (slNKB) (peptide), the EC50 of SRE-Luciferase activity (COS7 cells expressing slNKB receptor) in test [1] worked out at 1.03 nM.

For the substance tilapia NKB (peptide), the luciferase activity (CRE-Luc reporter, COS-7 cells transfected with tilapia tac3 receptor) in test [2] worked out at 1.8 fold. Besides, the luciferase activity (CRE-Luc, COS-7 cells transfected with salmon tac3r) in test [1] came out at 1.8 fold.

zebrafish NKB (peptide) had a CRE-LUC (COS-7 cells transfected with zebrafish tac3 receptor) in test [3] of more than 3 fold.
